The experiment deals with acetylcholine receptor. The experiment in a line: SPR, AchR immobilised on CM5 chip, peptide 10 uM.

KNNHKK [6mer-2-736] yielded a Binding affinity (RU) of 29 RU.

For KHHKKK [6mer-2-726], the Binding affinity (RU) worked out at 25 RU.

Regarding KCPGKR [6mer-2-717], the Binding affinity (RU) stood at 15 RU.

Molecule RTMHKR [6mer-2-703] registered a Binding affinity (RU) of 14 RU.

RATNRK [6mer-2-720]: the Binding affinity (RU) amounted to 29 RU.

In the case of RIPNKR [6mer-2-757], the Binding affinity (RU) was 19 RU.

RANFRR [6mer-2-747] yielded a Binding affinity (RU) of 29 RU.

Turning to KHCHRR [6mer-2-734], the Binding affinity (RU) was found to be 17 RU.

KHTMKR [6mer-2-743] displayed a Binding affinity (RU) of 18 RU.

KPTWRK [6mer-2-732] came in with a Binding affinity (RU) of 24 RU.

In turn, RNTHKR [6mer-2-730] returned a Binding affinity (RU) of 26 RU.

In turn, RIHAKK [6mer-2-739] showed a Binding affinity (RU) of 17 RU.

RYEHRR [6mer-2-753] showed a Binding affinity (RU) of 18 RU.

For the molecule KADGRR [6mer-2-754], the Binding affinity (RU) was 12 RU.

In turn, RTWKRK [6mer-2-707] yielded a Binding affinity (RU) of 21 RU.

On to KASWKK [6mer-2-731], for which the Binding affinity (RU) turned out to be 19 RU.

Consider RTEPRK [6mer-2-761], for which the Binding affinity (RU) was determined as 29 RU.

Molecule RCPDKR [6mer-2-729] came in with a Binding affinity (RU) of 30 RU.

For KECGRR [6mer-2-711], the Binding affinity (RU) came out at 29 RU.

Molecule RTWKKR [6mer-2-716] returned a Binding affinity (RU) of 18 RU.

KITARR [6mer-2-771] had a Binding affinity (RU) of 26 RU.

Molecule RHSKKK [6mer-2-721] came in with a Binding affinity (RU) of 26 RU.

As for RMTMKK [6mer-2-728], the Binding affinity (RU) was 23 RU.

Consider KIKPRR [6mer-2-719], for which the Binding affinity (RU) was 29 RU.

Regarding RFDKKR [6mer-2-748], the Binding affinity (RU) was 28 RU.

Molecule RIWPKR [6mer-2-709] returned a Binding affinity (RU) of 31 RU.

The molecule KINWRR [6mer-2-752] displayed a Binding affinity (RU) of 29 RU.

As to RNKKKK [6mer-2-710], the Binding affinity (RU) was found to be 14 RU.

KIPHRR [6mer-2-712] registered a Binding affinity (RU) of 29 RU.

For the molecule KHSPRK [6mer-2-765], the Binding affinity (RU) is 23 RU.

For the molecule KPWFKK [6mer-2-738], the Binding affinity (RU) turned out to be 29 RU.

The molecule RATHRK [6mer-2-715] gave a Binding affinity (RU) of 32 RU.

Regarding KFTDRK [6mer-2-706], the Binding affinity (RU) stood at 23 RU.

Molecule RPTFRK [6mer-2-766] showed a Binding affinity (RU) of 23 RU.

As to RICGRK [6mer-2-767], the Binding affinity (RU) amounted to 13 RU.

As for KPTNRK [6mer-2-756], the Binding affinity (RU) is 26 RU.

The molecule KNTERR [6mer-2-745] came in with a Binding affinity (RU) of 17 RU.

Molecule KMKERR [6mer-2-763] displayed a Binding affinity (RU) of 19 RU.

Take RFSFKK [6mer-2-758]: the Binding affinity (RU) came out at 18 RU.

The molecule KIPVKK [6mer-2-760] yielded a Binding affinity (RU) of 15 RU.

In turn, RFDEKK [6mer-2-759] displayed a Binding affinity (RU) of 18 RU.

Molecule KPNMKK [6mer-2-770] returned a Binding affinity (RU) of 24 RU.

As for KDWHRK [6mer-2-704], the Binding affinity (RU) worked out at 20 RU.

Turning to KIDVRK [6mer-2-714], the Binding affinity (RU) was determined as 30 RU.

In turn, KFEERK [6mer-2-762] gave a Binding affinity (RU) of 24 RU.

As for KYTFKR [6mer-2-718], the Binding affinity (RU) was found to be 12 RU.

KYMGRK [6mer-2-768] displayed a Binding affinity (RU) of 22 RU.

As to RPHWKR [6mer-2-751], the Binding affinity (RU) was 12 RU.

For the molecule KAHMKK [6mer-2-725], the Binding affinity (RU) came out at 25 RU.

Molecule RENFKK [6mer-2-705] showed a Binding affinity (RU) of 11 RU.

In turn, RDMIKR [6mer-2-727] yielded a Binding affinity (RU) of 11 RU.

In the case of RTPARK [6mer-2-733], the Binding affinity (RU) worked out at 29 RU.

On to KNEKKR [6mer-2-741], for which the Binding affinity (RU) stood at 30 RU.

Molecule KEDMKR [6mer-2-723] showed a Binding affinity (RU) of 23 RU.

Turning to RAWVKK [6mer-2-708], the Binding affinity (RU) is 29 RU.

As for RNEHRR [6mer-2-722], the Binding affinity (RU) is 21 RU.

As to RIKVRK [6mer-2-746], the Binding affinity (RU) was found to be 26 RU.

RKCVKR [6mer-2-750] yielded a Binding affinity (RU) of 29 RU.

KNNWRR [6mer-2-742] gave a Binding affinity (RU) of 32 RU.

KYTMKK [6mer-2-724] had a Binding affinity (RU) of 24 RU.

RYNDKK [6mer-2-755] yielded a Binding affinity (RU) of 18 RU.

KDHPRK [6mer-2-744]: the Binding affinity (RU) is 19 RU.

RHPAKK [6mer-2-772] registered a Binding affinity (RU) of 15 RU.

In the case of RNAVKK [6mer-2-764], the Binding affinity (RU) was determined as 31 RU.

On to KIDIRR [6mer-2-740], for which the Binding affinity (RU) was 12 RU.

As to RCPFRK [6mer-2-769], the Binding affinity (RU) came to 13 RU.

In turn, KMWKRK [6mer-2-749] yielded a Binding affinity (RU) of 20 RU.

KPDARR [6mer-2-773] gave a Binding affinity (RU) of 11 RU.

With KDSVRR [6mer-2-737], the Binding affinity (RU) turned out to be 19 RU.

Take KMNAKK [6mer-2-735]: the Binding affinity (RU) is 21 RU.

Regarding RASWRR [6mer-2-713], the Binding affinity (RU) was found to be 24 RU.

The values are drawn from US20250011363A1, “OPTIMIZED SHORTENED PEPTIDE THAT BINDS TO ACETYLCHOLINE RECEPTOR, AND USE THEREOF” (SKINMED CO., LTD., priority 2021, published 2025).
